According to US9835616B2, “In vitro method for assessing cytokine storm responses” (IMPERIAL INNOVATIONS LTD., priority 2013, dated 2017):

Legend:
Type in all cases: cell-based, human
[1] = system: co-cultures of HUVEC and PBMC; test: HUVEC plus PBMC co-culture assay (two donors), CXCL8; details: HUVEC + PBMC co-culture from two donors, 10 μg/ml, 24 h, FIG. 3A
Method: (§1) FIG. 3A-B HUVEC (A) and mixed donor BOEC (B) plus PBMC mono and co-culture bioassay data. PBMCs were added to HUVEC (A) or BOEC from different donors (B) after 24 h. For monocultures vehicle media was added. At the same time cultures were treated +/− vehicle, ANC28 (TGN1412-like superagonist) (10 μg/ml), Campath (10 μg/ml), Avastin (10 μg/ml) or Arzerra (10 μg/ml) for 24 h. Data are mean±SEM (A; n=3) (B; n=3). Statistical significance between treatments was determined by one-way ANOVA followed by Bonferroni's Multiple Comparison test (*p<0.05)
Supernatants were discarded from each tube.
In order to compare data from our same-donor assay with the current state-of-the-art assays^1,3,17, we ran parallel experiments using HUVECs as the detector endothelial cell model. PBMCs again released low levels of CXCL8 that was not increased by any of the biotherapetuics tested (FIG. 3A). HUVEC released relatively higher basal levels of CXCL8 that were not increased by anti-CD28 superagonist or Campath. […] The basis for these different results cannot be investigated further as HUVEC donors, unlike BOEC, cannot be easily traced and studied further. Similar results were found when PBMCs were added to BOECs from a different donor. Importantly, co-cultures of HUVEC and PBMC (from two donors) responded to TGN1412-like superagonist (ANC28) and Campath. […]

HUVEC = HUVEC mono-culture, CXCL8 by ELISA; details: 10 μg/ml, 24 h, FIG. 3A
Method: as §1
Plates were incubated at 37° C., 5% CO2.
In order to compare data from our same-donor assay with the current state-of-the-art assays^1,3,17, we ran parallel experiments using HUVECs as the detector endothelial cell model. PBMCs again released low levels of CXCL8 that was not increased by any of the biotherapetuics tested (FIG. 3A). HUVEC released relatively higher basal levels of CXCL8 that were not increased by anti-CD28 superagonist or Campath. […] The basis for these different results cannot be investigated further as HUVEC donors, unlike BOEC, cannot be easily traced and studied further. Similar results were found when PBMCs were added to BOECs from a different donor. Importantly, co-cultures of HUVEC and PBMC (from two donors) responded to TGN1412-like superagonist (ANC28) and Campath. This captures fully what is already know for this assay which, since the TGN1412 phase 1 trial, is as used as the gold standard assay to test biotherapeutics at the preclinical stage^1,17,18. […] This immune activation response in control or other conditions is likely due to the mixing of tissue from different donors and is a serious limitation for the HUVEC or other similar assays, but one that is totally avoided by our ‘same donor’ assay.

[2] = system: same donor BOEC: PBMC co-culture; test: MSD 9-plex pro-inflammatory cytokine array on matched BOEC:PBMC co-cultures; details: 10 μg/ml, 24 h, FIG. 5
Method: FIG. 5A-C Cytokine release data from MSD analysis. Measurements were carried out using an MSD 10-spot 9-plex Pro-Inflammatory Assay (see methods). Data are mean±SEM (n=5 from matched 5 donors). Statistical testing was carried out between 5 donors by one-way ANOVA followed by Dunnett's multiple comparison test comparing responses with drug to respective control only (*p<0.05).
Plates were then incubated for 24 h.
To further analyse the cytokines released by matched BOEC and PBMC co-cultures as well as respective monocultures following stimulation with biologics an MSD (Meso Scale Discovery, USA) platform analysis was used. Human pro-inflammatory 9-Plex MULTISPOT 96-well-10 spot MSD plates were purchased from MSD (Gaithersburg, Md.) (Cat no. N05007A-1). Samples were diluted 1:10 in Lonza-EGM2 10% FBS/RPMI mix and added to the MSD plate. The immunoassay was carried out according to manufacturer's instructions. Plates were read using an MSC Sector Imager 2400 and analysed using MSD Discovery® Workbench software. Cytokines analysed were IL-2, CXCL8 (IL-8), IL-12q70, IL-1β, GM-CSF, IFNγ, IL-6, IL-10 and TNFα.

## alemtuzumab [Campath]
[1]
  CXCL8 release: responded
HUVEC
  CXCL8 release: not increased
[2]
  GM-CSF release: tendency to elevate
  IL-6 release: tendency to elevate
  IL-8 release: tendency to elevate

## bevacizumab [Avastin]
HUVEC
  CXCL8 release: tendency to respond

## ofatumumab [Arzerra]
HUVEC
  CXCL8 release: tendency to respond
